The target of assay [1] is PPD1 (diphosphonucleotide phosphatase/phosphodiesterase) (Lupinus luteus, UniProt Q8VX11). Particulars: active site, bidentate, bridging Fe and Mn; crystals from acetate pH 5.2 and Morpheus solution pH 6.5.
Assay [2] deals with Diphosphonucleotide phosphatase/phosphodiesterase (PPD1) from yellow lupin (Lupinus luteus) seeds (yellow lupin (Lupinus luteus)). Put plainly: SAXS; PPD1 in solution, 1-4 mg/ml, SWING beamline at SOLEIL; crystallographic hexamer and trimer models fitted with CRYSOL, ab initio shape reconstruction with GASBOR.
The target is the same in assay [3]. As to the kind of experiment: crystal structure; hanging drop at room temperature, 5 mg/ml PPD1 in 20 mM sodium acetate, 0.5 M NaCl pH 5.2 with Morpheus solution 39 (pH 6.5); asymmetric unit a homotrimer, hexamer generated from crystallographic symmetry; 1.65 Å.

PPD1 (diphosphonucleotide phosphatase/phosphodiesterase), sequence (Q8VX11 27-615): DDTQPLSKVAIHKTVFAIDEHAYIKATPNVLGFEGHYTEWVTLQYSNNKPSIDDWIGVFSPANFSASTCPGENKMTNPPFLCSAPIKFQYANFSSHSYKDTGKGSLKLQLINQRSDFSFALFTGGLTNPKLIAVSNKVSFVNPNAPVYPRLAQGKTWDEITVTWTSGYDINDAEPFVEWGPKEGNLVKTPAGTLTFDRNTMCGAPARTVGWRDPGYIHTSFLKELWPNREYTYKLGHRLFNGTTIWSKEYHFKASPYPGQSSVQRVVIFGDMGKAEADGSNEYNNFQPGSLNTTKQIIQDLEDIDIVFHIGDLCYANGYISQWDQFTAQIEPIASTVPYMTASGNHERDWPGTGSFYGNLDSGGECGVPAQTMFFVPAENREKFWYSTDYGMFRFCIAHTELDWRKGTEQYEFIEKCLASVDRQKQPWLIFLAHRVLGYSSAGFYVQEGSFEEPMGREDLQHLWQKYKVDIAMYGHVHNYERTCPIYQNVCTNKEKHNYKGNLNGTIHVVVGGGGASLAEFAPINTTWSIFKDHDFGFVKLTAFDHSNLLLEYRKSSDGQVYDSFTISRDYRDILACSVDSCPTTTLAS

Turning to `O=P(O)(O)O` [phosphate], the “X-ray crystal structure, 1.65 A” value in assay [1] is listed as “active site of PPD1 with a phosphate ion bound to both of the metal atoms”.

What is called stoichiometry N is a count of units in the complex or per binding partner. As to “Diphosphonucleotide phosphatase/phosphodiesterase (PPD1) from yellow lupin (Lupinus luteus) seeds (enzyme)”, the stoichiometry N in assay [2] and in assay [3] was 6 throughout.
